According to PMC7820290:

Tests used:
Assay in all cases: co-condensation microscopy
N1-246 (SARS-CoV-2) = N1-246 (SARS-CoV-2) (UniProt P0DTC9)
N175-364 (SARS-CoV-2) = N175-364 (SARS-CoV-2) (UniProt P0DTC9)
N175-419 (SARS-CoV-2) = N175-419 (SARS-CoV-2) (UniProt P0DTC9)
N49-246 (SARS-CoV-2) = N49-246 (SARS-CoV-2) (UniProt P0DTC9)
[1] = molecular target: SARS-CoV-2 nucleocapsid (N), wild type (SARS-CoV-2) (UniProt P0DTC9)

GGGAUUAAAGGUUUAUACCUUCCCAGGUAACAAACCAACCAACUUUCGAUCUCUUGUAGAUCUGUUCUCUAAACGAACUUUAAAAUCUGUGUGGCUGUCACUCGGCUGCAUGCUUAGUGCACUCACGCAGUAUAAUUAAUAACUAAUUACUGUCGUUGACAGGACACGAGUAACUCGUCUAUCUUCUGCAGGCUGCUUACGGUUUCGUCCGUGUUGCAGCCGAUCAUCAGCACAUCUAGGUUUCGUCCGGGUGUGACCGAAAGGUAAG [UTR265]
binding signal (% fluorescence in condensates) (N1-246 (SARS-CoV-2)): 13
binding signal (% fluorescence in condensates) (N175-364 (SARS-CoV-2)): 8.4
binding signal (% fluorescence in condensates) (N175-419 (SARS-CoV-2)): 9.3
binding signal (% fluorescence in condensates) (N49-246 (SARS-CoV-2)): 18
binding signal (% fluorescence in condensates) [1]: 35
